This is an account of results in US20260055150A1 (REGENTS OF THE UNIVERSITY OF MICHIGAN, published 2026).

Where no end group is shown, it is not given here.

The target of test [1] is T1, claudin-1 on colonic patient-derived organoid cells (human, UniProt O95832 1-211).
T1 construct: whole, on cells; also called CLN1
T1 sequence (looked up): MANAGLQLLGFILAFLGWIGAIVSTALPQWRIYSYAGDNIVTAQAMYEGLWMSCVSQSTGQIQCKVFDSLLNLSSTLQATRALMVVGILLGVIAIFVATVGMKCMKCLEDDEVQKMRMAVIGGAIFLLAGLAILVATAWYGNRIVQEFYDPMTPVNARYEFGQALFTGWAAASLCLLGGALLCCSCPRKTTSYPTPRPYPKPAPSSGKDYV
The experiment in a line: ex vivo immunofluorescence staining of resected tissue.
From the text: After completion of in vivo imaging, the results were validated using IF.

The target in test [2] is T2, epidermal growth factor receptor (EGFR) on patient-derived organoid cells (human, UniProt P00533 25-1210).
T2 construct: whole, on cells
The test can be described thus: in vivo wide-field fluorescence endoscopy of PDO implanted in mouse colon, peptide given intravenously.
Method: Cultures were harvested from Matrigel in cold DPBS, triturated 30× with a 1 mL pipette tip, and centrifuged at 300 g for 3 min at 4° C. […] The colonoid fragments were further dissociated by 20× pipetting with a 1 mL pipette tip. […] Slow centrifugation at 100 g was performed to reduce the single cell content. The cell aggregates were resuspended in cold DPBS supplemented with 5% Matrigel and 10 µM Y27632. 1.8×10⁶ cell aggregates in 200 μL were transplanted per mouse as described previously. The implants were monitored over time using a rigid wide-field endoscope and a flexible fiber-coupled endomicroscope to localize the PDO and visualize EGFR expression with sub-cellular resolution.
Organoids grown in vitro (FIG. 17A) were implanted on day 7 post-DSS treatment. For implantation, in vitro grown PDOs were disrupted into smaller aggregates in 200 μL volume and were implanted intrarectally in anesthetized mice. The rectum was closed immediately using tissue glue. After several weeks to establish viability, the implanted PDOs were imaged using a rigid wide-field endoscope. The fluorescently-labeled peptide QRH*-Cy5 was administered intravenously at a dose of 300 μM in 200 μL of PBS.

B1: RTS*-Cy5.5 (Cy5.5-labeled peptide RTSPSSR) (peptide)
peptide: RTSPSSR
modifications: also: Cy5.5 label, attachment not given here
notes: also called peptide specific for claudin-1
Take B1: the binding result in test [1] is “binds”.
QRHKPRE (also: Cy5 label, attachment not given here, also called Cy5QRH*-Cy5) [QRH*-Cy5 (QRHKPRE labeled with Cy5)]: in test [2], the binding result is listed as “binds”.
